Results: the supplement of paper PMC10724198
± gives the standard deviation of the averaged measurements.

tested on: Saccharomyces cerevisiae; assay: protein stability index of tFT-peptide fusion (C-terminal peptide) (PSI (0-1 scale)); higher = more stable (slower turnover); conditions: genetic background: wild type; temperature: 30 C
Protocol: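 Multiplexed protein stability (MPS) profiling in S. cerevisiae. Random 12-aa peptides (tFT-X12 library) are fused to the C-terminus of a sfGFP-mCherry tandem fluorescent timer, after mCherry and a GGGS linker. Cells are FACS-sorted into 8 mCherry/sfGFP bins and deep-sequenced. The protein stability index (PSI) is the read-weighted bin average, scaled from 0 (unstable) to 1 (stable). Only peptides with >10 reads are reported; cells were grown at 30 °C in SC-His with glucose.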
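Also: PSI is a weighted mean of sequencing reads over stability bins, variants kept only with over 10 reads, mCherry proximal and sfGFP distal, peptide attached via GGGS linker.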

Point of comparison: ALRLLRFPSPPP, protein stability index 0.628 ± 0.049. Against it:
- AACGELLKYSLS — within error, 0.576 ± 0.011
- AADNTGRNKGPQ — within error, 0.685 ± 0.0095
- AAEPGGGTALRG — within error, 0.637 ± 0.029
- AAGGPGGPELWG — within error, 0.749 ± 0.14
- AAGLHFYIFRGI — within error, 0.669 ± 0.025
- AAGRRGWGRGRG — within error, 0.788 ± 0.15
- AAGWRPEGSGAF — higher, 0.725 ± 0.033
- AALLSSPPLSPP — within error, 0.662 ± 0.062
- AAPSRASDLARP — within error, 0.661 ± 0.087
- AARCSPSQEDSF — within error, 0.697 ± 0.12
- AARGILLASRRD — within error, 0.739 ± 0.092
- AASGCGRPGCSA — within error, 0.663 ± 0.059
- AAVGELLFTSLV — within error, 0.699 ± 0.022
- AAVPPLSQSPDS — within error, 0.674 ± 0.03
- ACCIFAFHRSLS — lower, 0.487 ± 0.032
- ACFVVDHGPLHL — within error, 0.695 ± 0.031
- ACPLPPLPTPLP — higher, 0.736 ± 0.04
- ACPQPSPSPSQY — within error, 0.672 ± 0.048
- ACRREMISVLYT — within error, 0.624 ± 0.0075
- ACTPHLPLPAPQ — higher, 0.706 ± 0.016
- ACWVAKTGGSPV — within error, 0.654 ± 0.012
- ADAFDRGRISVV — higher, 0.792 ± 0.11
- ADDTFSERIHSK — within error, 0.7 ± 0.093
- ADPNDSPPPASP — within error, 0.617 ± 0.026
- ADRGLVSLAIVG — within error, 0.582 ± 0.015
- ADRTLLLKQWYG — within error, 0.682 ± 0.037
- AEAVQQGVTIGG — within error, 0.68 ± 0.014
- AEFSGVVIGRWW — within error, 0.718 ± 0.054
- AEGPWMEDGDMG — higher, 0.7024 ± 0.0028
- AELSPGLSVLLL — higher, 0.705 ± 0.013
- AERGRMLSEGKW — within error, 0.701 ± 0.053
- AFCCRSPPSSHP — within error, 0.655 ± 0.096
- AFCPLLLRGTAP — within error, 0.697 ± 0.045
- AFLDISIPSSSL — higher, 0.6857 ± 0.0063
- AFQLGMILSLVA — lower, 0.507 ± 0.013
- AFRKRTFKQESC — within error, 0.642 ± 0.0098
- AFWYACMSLHRS — within error, 0.728 ± 0.07
- AFYERLQEWIRA — within error, 0.613 ± 0.014
- AGAGGGSLGPAG — within error, 0.651 ± 0.1
- AGAGGRAMSDTS — higher, 0.693 ± 0.0087
- AGAGRGVVLGWW — within error, 0.684 ± 0.017
- AGAGVQAYGRGR — within error, 0.681 ± 0.015
- AGANPRVGTFWV — within error, 0.664 ± 0.032
- AGARGVAGWLPR — within error, 0.684 ± 0.041
- AGARVGAPASTR — within error, 0.664 ± 0.028
- AGAWVRVVVGWG — higher, 0.737 ± 0.012
- AGCLSGPVDILL — within error, 0.703 ± 0.046
- AGEDRGSRWVCI — within error, 0.699 ± 0.032
- AGFTATTPIRGV — higher, 0.715 ± 0.022
- AGGAGGCRGWSI — higher, 0.705 ± 0.018
- AGGGCALGDGWS — within error, 0.649 ± 0.021
- AGGGEASRGQAK — within error, 0.596 ± 0.0062
- AGGGKGGGGGEK — within error, 0.649 ± 0.029
- AGGGRGGGSLRV — within error, 0.669 ± 0.034
- AGGIAVYFGEEE — higher, 0.746 ± 0.055
- AGGLGGSILCLV — within error, 0.556 ± 0.025
- AGGSVCRESLEV — within error, 0.694 ± 0.064
- AGGTMVVVVRSC — lower, 0.51175 ± 3.2e-05
- AGGVCHVSSLLA — within error, 0.64 ± 0.021
- AGGVESGGRSGV — within error, 0.679 ± 0.02
- AGHGGWREAGGG — higher, 0.685 ± 0.0076
- AGLCVSIGVGRG — within error, 0.652 ± 0.015
- AGLGHVPGEHSV — within error, 0.613 ± 0.033
- AGLPGSSFWWVF — within error, 0.682 ± 0.058
- AGLVADGYWLRR — higher, 0.6892 ± 0.005
- AGLWWGGCAAGA — higher, 0.804 ± 0.037
- AGRAPRGSWECS — within error, 0.719 ± 0.18
- AGRGEIVINGKR — within error, 0.615 ± 0.07
- AGRLEGGRRWRV — within error, 0.69 ± 0.031
- AGSDLGLIEGIV — within error, 0.685 ± 0.024
- AGSHPSRLGIFS — higher, 0.733 ± 0.033
- AGSSSLRGRLRG — within error, 0.69 ± 0.068
- AGSTGGGRGRDW — within error, 0.76 ± 0.14
- AGTGAHGLREPR — within error, 0.706 ± 0.15
- AGTHRDLFQRWS — within error, 0.711 ± 0.046
- AGTVGRGVSGGR — within error, 0.5746 ± 0.0044
- AGVCVAVGGGGF — within error, 0.676 ± 0.03
- AGVDKWLMCEVS — within error, 0.695 ± 0.034
- AGVGPTHVRPPR — within error, 0.676 ± 0.0079
- AGVRGWGIAVTP — within error, 0.64 ± 0.046
- AHGAGCGGRRVA — higher, 0.726 ± 0.023
- AHLPHSSFSWRP — within error, 0.707 ± 0.05
- AHLPSPRPRPPP — higher, 0.764 ± 0.013
- AHYGSNNNGLVF — within error, 0.695 ± 0.042
- AIKGIYPRCYFI — higher, 0.697 ± 0.0073
- AIKHMVSHSPGN — within error, 0.683 ± 0.08
- AILFSASLTLLL — within error, 0.598 ± 0.012
- AILPFGLLPTHR — higher, 0.745 ± 0.017
- AILTLVQEVRKY — within error, 0.6203 ± 0.00088
- AIPLPVLSFPPL — higher, 0.737 ± 0.024
- AIPLYAPSQPCE — within error, 0.696 ± 0.027
- AIRGGPGGDKEP — within error, 0.682 ± 0.024
- AISCPFIRFSSL — within error, 0.614 ± 0.0091
- AITSPLGFGVLG — higher, 0.717 ± 0.015
- AKEENQRKYTRR — within error, 0.637 ± 0.13
- AKGRRRRGRWWG — within error, 0.682 ± 0.032
- AKLVESISEVAT — within error, 0.6766 ± 0.0052
- AKRLYLLTNRND — within error, 0.634 ± 0.025
- AKSKVAGNVGGD — within error, 0.669 ± 0.017
- ALCEVLSKSFEF — within error, 0.6617 ± 0.0025
- ALCSGCFAFLGA — within error, 0.676 ± 0.11
- ALEFNGLVAGRL — within error, 0.727 ± 0.081
- ALGVRVSVLGVL — within error, 0.642 ± 0.0075
- ALKVMYMHTGKG — within error, 0.62 ± 0.041
- ALLLTLTCGLFF — lower, 0.521 ± 0.019
- ALMITIMNNREF — within error, 0.649 ± 0.021
- ALPLPLLACSPL — within error, 0.6268 ± 0.0034
- ALRVSGAYREHS — higher, 0.735 ± 0.032
- ALSPAFSPLFLP — within error, 0.668 ± 0.036
- ALSSVPPCSLPP — within error, 0.637 ± 0.016
- ALSVGGGSGSWY — higher, 0.736 ± 0.014
- ALVQWRVGGCGG — within error, 0.709 ± 0.085
- ALWARSGRVILI — within error, 0.674 ± 0.05
- AMGSGLVWAGPA — within error, 0.684 ± 0.03
- ANQGRRPWRGMC — within error, 0.585 ± 0.14
- ANRSPLFCVTFG — within error, 0.695 ± 0.027
- APACRLTLVSDF — higher, 0.752 ± 0.014
- APARPPVTLSTN — within error, 0.671 ± 0.013
- APARTTPRLPFA — within error, 0.724 ± 0.069
- APDPPGLRGLSP — higher, 0.719 ± 0.015
- APDRLPLSRCPA — higher, 0.699 ± 0.02
- APFMSLSNTIAR — within error, 0.677 ± 0.026
- APFPMVSSLSFL — higher, 0.761 ± 0.037
- APGLPSFRSLFA — within error, 0.676 ± 0.016
- APHAPPPSFPAP — higher, 0.729 ± 0.0097
- APHPPPPDPPLP — within error, 0.697 ± 0.04
- APKVYVAAYTPL — within error, 0.676 ± 0.025
- APKYPIQEWIKL — within error, 0.594 ± 0.031
- APLFASSASIPL — within error, 0.716 ± 0.11
- APLLQCPILARP — within error, 0.588 ± 0.0067
- APLSLPPPPSPH — within error, 0.696 ± 0.033
- APPALPPLSPFP — within error, 0.705 ± 0.091
- APPAPPTYLAPF — within error, 0.729 ± 0.069
- APPPLLPLRPFR — within error, 0.606 ± 0.1
- APPPLPPARSPP — within error, 0.6541 ± 0.0056
- APPPLPPTPPPL — higher, 0.7017 ± 0.0031
- APPPNSLPPPPP — higher, 0.72 ± 0.022
- APPPPLPAPQLR — within error, 0.6186 ± 0.0011
- APPPPSPPSLAS — within error, 0.736 ± 0.074
- APPPRPPPPPQL — within error, 0.67 ± 0.031
- APPPSPPALVLP — within error, 0.641 ± 0.026
- APRCCPHLLRFR — within error, 0.655 ± 0.055
- APSPRPSRPPPL — within error, 0.671 ± 0.034
- APSQPPTPPPIS — within error, 0.665 ± 0.03
- APSTFRPPTPPS — higher, 0.711 ± 0.03
- APVLPKPSPFSF — within error, 0.629 ± 0.01
- APWSQLRSPPAL — higher, 0.769 ± 0.037
- AQIGTKINTRKT — within error, 0.599 ± 0.04
- AQPAPAPALADV — within error, 0.667 ± 0.039
- AQPPPPPAPTPS — within error, 0.674 ± 0.093
- AQSPRFPYRNYH — within error, 0.693 ± 0.049
- AQTASQSPYRVG — higher, 0.731 ± 0.017
- ARADILLLTWGV — within error, 0.604 ± 0.027
- ARAGLVGDARGM — within error, 0.641 ± 0.026
